Source: patent publication US20220144960A1 (NANJING LEGEND BIOTECH, published 2022)
Residue numbers refer to the chain shown, from its start.

B1: AS57911 human Fab (Fab, V domains shown)
VH: EVQLVESGGGLVQPGGSLRLSCAASGFNISSSYIHWVRQAPGKGLEWVAYISSYYSYTYYADSVKGRFTISADTSKNTAYLQMNSLRAEDTAVYYCARGYPYGMDYWGQGTLVTVSS
VL: DIQMTQSPSSLSASVGDRVTITCRASQSVSSAVAWYQQKPGKAPKLLIYSASSLYSGVPSRFSGSRSGTDFTLTISSLQPEDFATYYCQQSHALITFGQGTKVEIK
notes: Human Fab from a synthetic human Fab library, crude protein from E. coli with 6xHistidine tag
B2: AS57659 human Fab (Fab, V domains shown)
VH: EVQLVESGGGLVQPGGSLRLSCAASGFNIYSYYIHWVRQAPGKGLEWVASIYSSYSSTYYADSVKGRFTISADTSKNTAYLQMNSLRAEDTAVYYCARSWFSYPGLDYWGQGTLVTVSS
VL: B1 VL with S91P, H92Y, A93Y
notes: as for B1
B3: AS57765 human Fab (Fab, V domains shown)
VH: EVQLVESGGGLVQPGGSLRLSCAASGFNIYYSYMHWVRQAPGKGLEWVAYIYPYSGSTSYADSVKGRFTISADTSKNTAYLQMNSLRAEDTAVYYCARPAVHWHGYGGGYYYGLDYWGQGTLVTVSS
VL: DIQMTQSPSSLSASVGDRVTITCRASQSVSSAVAWYQQKPGKAPKLLIYSASSLYSGVPSRFSGSRSGTDFTLTISSLQPEDFATYYCQQAYYSLITFGQGTKVEIK
notes: as for B1
B4: AS54233 sdAb (VHH)
VHH: QVQLVESGGGSVQAGETLRLSCTASGFTFDGPDMAWYRQAPGNECELVSIISADGRTYYTDSVKGRFTASQDNAKNTVSLYLKSLQPEDTAVYYCAADPRRNCRGNCCGNWGPGTQVTVSS
notes: Camel sdAb
B5: AS48542 sdAb (VHH)
VHH: QMQLVESGGGSVQAGETLRLSCTTSAFTFDGPDMAWYRQAPGNECVLVSIISADGRTYYADSVKGRFTISRDNAKNTVFLNLNSLQPEDTAVYYCALDPRKNCRGGYCCANWGPGTQVTVSS
notes: Camel sdAb
B6: AS47863 sdAb (VHH)
VHH: QVQLEESGGGSVQAGETLRLSCTASGSTFGDSDMGWYRQAPGNACELVSIISSDGRTYYVDSVKGRFTISQDNAVSTVYLQMNSLKPEDTGVYYCAADLRQYCRDGRCCGYWGQGTQVTVSS
notes: Camel sdAb
B7: AS48433 sdAb (VHH)
VHH: B6 VHH with V2I, E5V, K86N, Q101L, Y102N
notes: Camel sdAb
B8: AS48508 sdAb (VHH)
VHH: EVQLVESGGGSVQAGGSLRLSCTASRFTFDGPDMAWYRQAPGNACELVSIISADGRTYYTDSVKGRFTISRDNAKNTVFLYLNSLQPEDTAVYYCAPDPRRNCRGGYCCGNWGPGTQVTVSS
notes: Camel sdAb
B9: AS53750 sdAb (VHH)
VHH: B8 VHH with S11L, A14P, R26G, F29D, Q39R, A44E, Y107D
notes: Camel sdAb
B10: AS53445 sdAb (VHH)
VHH: QVQLVESGGGSVQAGGSLRLSCTASGYIFCMGWFRQAPGKAREGIATIYTGGDSTYYDDSVKGRFTISRDNAKNTVYLQMNSLKPEDTAMYYCAAGGQECYLTNWVSYWGQGTQVTVSS
notes: Camel sdAb
B11: AS48463 sdAb (VHH)
VHH: QVHLMESGGGSVQAGETLRLSCTASGFTFANSDMGWYRQAPGNACELVSIISSHGGTTYYVDSVKGRFTISRHNAENTVYLRMTSLKPEDTALYYCVADPRSNCRGGYCCGYWGPGTQVTVSS
notes: Camel sdAb
B12: AS53574 sdAb (VHH)
VHH: QVKLVESGGGSVQAGGSLRLSCAASGYIYSSNCMGWFRQAPGKEREWVARIHTGSGSTYYADSVKGRFTISQDNAKNTVYLQMNSLRPEDTAMYDCAAGRVVLGAVVCTNEYWGQGTQVTVSS
notes: Camel sdAb

The binders below were run against T1, human CD30 CRD1 (F19-Q68) Fc fusion protein with human IgG1 Fc fragment at the C terminus (human) (assay: SPR, captured Fab, Fc-fused CRD protein as analyte).
T1 construct: also called CRD1 construct
Procedure: (§1) Some of these unique binders were subjected to for further characterization by surface plasmon resonance (SPR) on a BIAcore T200 instrument (GE Healthcare). The experiment was carried out as follows. The crude sdAb/Fab proteins were captured through an affinity tag (6×Histidine tag) onto the sensorchip. High-concentration (100.0 nM) of human CD30 (R&D systems, Cat. #6126-CD) flowed over the sensorchip surface, and were allowed to bind the antibody fragments for 300 s followed by injection of the running buffer to allow dissociation of the complex. On-rate ([…] and off-rate (kd) were roughly calculated based on one association and dissociation curve, and were used to estimate the equilibrium dissociation constant (KD). 5F11 scFv (SEQ ID NO:216, prepared according to WO2017066122) was used as a positive control. Data were summarized in Table 3 below. The first 10 antibodies in Table 3 were sdAbs with amino acid sequence ID numbers summarized in Table 1, the last antibody was 5F11 scFv, and the remainings were human Fabs with CDR and scFv amino acid sequence ID numbers in Table 2.
(§2) Cysteine rich domains (CRDs) of human CD30 and the flanking residues, i.e., CRD1 (F19-Q68, SEQ ID NO: 3), CRD2 (R66-E107, SEQ ID NO: 4), CRD3 (E107-5153, SEQ ID NO: 5), CRD4 (E150-Q243, SEQ ID NO: 6), CRD5 (R241-E282, SEQ ID NO: 7) and CRD6 (E282-K379, SEQ ID NO: 8), were produced as Fc fusion proteins with human IgG1 Fc fragment (SEQ ID NO: 217) at the C terminus and used for epitope determination using SPR following the protocol similar to what was described above, only the analytes used were human IgG1 Fc-fused CRD proteins.

| Binder | binding result |
| --- | --- |
| B1 | no binding |
| B2 | no binding |
| B3 | no binding |

Each binder was assayed against T2, human CD30 CRD2 (R66-E107) Fc fusion protein with human IgG1 Fc fragment at the C terminus (human) (assay: SPR, captured Fab, Fc-fused CRD protein as analyte).
T2 construct: also called CRD2 construct
Procedure: as §1, §2

| Binder | binding result |
| --- | --- |
| B1 | no binding |
| B2 | no binding |
| B3 | no binding |

What follows are binders tested against T3, human CD30 CRD3 (E107-S153) Fc fusion protein with human IgG1 Fc fragment at the C terminus (human) (assay: SPR, captured Fab, Fc-fused CRD protein as analyte).
T3 construct: also called CRD3 construct
Procedure: as §1, §2

| Binder | binding result |
| --- | --- |
| B1 | no binding |
| B2 | no binding |
| B3 | no binding |

What follows are binders tested against T4, human CD30 CRD4 (E150-Q243) Fc fusion protein with human IgG1 Fc fragment at the C terminus (human) (assay: SPR, captured Fab, Fc-fused CRD protein as analyte).
T4 construct: also called CRD4 construct
T4 sequence (chain, as listed by the source limits assumed): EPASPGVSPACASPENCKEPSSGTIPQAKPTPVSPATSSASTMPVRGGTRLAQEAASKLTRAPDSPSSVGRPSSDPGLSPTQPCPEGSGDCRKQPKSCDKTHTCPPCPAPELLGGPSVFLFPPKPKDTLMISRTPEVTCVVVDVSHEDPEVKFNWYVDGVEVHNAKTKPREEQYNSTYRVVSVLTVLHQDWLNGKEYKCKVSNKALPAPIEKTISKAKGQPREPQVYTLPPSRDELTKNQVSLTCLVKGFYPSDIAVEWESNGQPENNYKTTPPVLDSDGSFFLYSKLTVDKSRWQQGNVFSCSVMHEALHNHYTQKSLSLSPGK
Procedure: as §1, §2

| Binder | binding result |
| --- | --- |
| B1 | no binding |
| B2 | no binding |
| B3 | no binding |

These binders were tested against T5, human CD30 CRD5 (R241-E282) Fc fusion protein with human IgG1 Fc fragment at the C terminus (human) (assay: SPR, captured Fab, Fc-fused CRD protein as analyte).
T5 construct: also called CRD5 construct
Procedure: as §1, §2

| Binder | binding result |
| --- | --- |
| B1 | no binding |
| B2 | no binding |
| B3 | no binding |

What follows are binders tested against T6, human CD30 CRD6 (E282-K379) Fc fusion protein with human IgG1 Fc fragment at the C terminus (human) (assay: SPR, captured Fab, Fc-fused CRD protein as analyte).
T6 construct: also called CRD6 construct
T6 sequence (chain, as listed by the source limits assumed): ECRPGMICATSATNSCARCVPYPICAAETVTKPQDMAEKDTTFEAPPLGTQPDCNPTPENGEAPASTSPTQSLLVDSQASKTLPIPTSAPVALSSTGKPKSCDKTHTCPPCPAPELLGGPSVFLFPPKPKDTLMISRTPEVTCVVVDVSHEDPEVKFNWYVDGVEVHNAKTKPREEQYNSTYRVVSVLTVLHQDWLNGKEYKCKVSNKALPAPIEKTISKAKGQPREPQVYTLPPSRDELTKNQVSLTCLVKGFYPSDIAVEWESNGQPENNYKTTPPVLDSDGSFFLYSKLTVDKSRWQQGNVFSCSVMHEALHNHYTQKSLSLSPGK
Procedure: as §1, §2

| Binder | binding result |
| --- | --- |
| B1 | no binding |
| B2 | no binding |
| B3 | no binding |

Molecular target: T7, rhesus CD30 ECD (rhesus, UniProt P28908 19-379 (human entry))
T7 construct: Produced in house; also called recombinant rhesus CD30; rhesus CD30 protein
T7 chain: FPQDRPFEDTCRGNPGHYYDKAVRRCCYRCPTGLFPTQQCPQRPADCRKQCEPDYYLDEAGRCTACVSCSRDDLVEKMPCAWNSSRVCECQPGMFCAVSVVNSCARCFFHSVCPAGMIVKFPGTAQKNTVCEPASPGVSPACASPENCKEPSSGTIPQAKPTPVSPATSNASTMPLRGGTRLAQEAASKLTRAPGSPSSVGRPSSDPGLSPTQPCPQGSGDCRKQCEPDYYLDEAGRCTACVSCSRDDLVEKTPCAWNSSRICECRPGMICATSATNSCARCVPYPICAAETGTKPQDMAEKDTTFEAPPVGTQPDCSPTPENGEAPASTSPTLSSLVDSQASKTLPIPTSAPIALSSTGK
Assay: ELISA on rhesus CD30 ECD protein; member of the group by paragraph 437

| Binder | binding result |
| --- | --- |
| B4 | binds |
| B1 | binds |
| B2 | binds |
| B5 | binds |
| B6 | binds |
| B7 | binds |
| B8 | binds |
| B9 | binds |
| B10 | binds |
| B3 | binds |
| B11 | binds |
| B12 | binds |

Each binder was assayed against T8, recombinant human CD30 extra cellular domain (ECD) protein (human, UniProt P28908 19-379) (assay: SPR Biacore T200, His-tagged sdAb/Fab captured, 100.0 nM human CD30 as analyte, single curve).
T8 construct: Bought from R&D systems; also called rhCD30; human CD30 ECD
T8 sequence: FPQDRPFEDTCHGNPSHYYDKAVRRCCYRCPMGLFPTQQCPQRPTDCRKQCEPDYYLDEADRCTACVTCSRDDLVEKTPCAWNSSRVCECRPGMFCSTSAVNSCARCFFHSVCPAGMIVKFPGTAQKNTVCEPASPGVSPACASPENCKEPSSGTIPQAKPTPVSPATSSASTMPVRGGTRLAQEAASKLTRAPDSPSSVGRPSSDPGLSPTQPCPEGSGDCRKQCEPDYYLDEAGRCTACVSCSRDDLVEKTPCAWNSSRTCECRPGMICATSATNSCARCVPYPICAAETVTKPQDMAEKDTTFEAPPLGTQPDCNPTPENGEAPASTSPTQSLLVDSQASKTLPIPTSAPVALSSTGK
Procedure: as §1

| Binder | Kd [nM] | koff [s⁻¹] | kon [M⁻¹ s⁻¹] | rhCD30 Binding (RU) |
| --- | --- | --- | --- | --- |
| B4 | 76 | 0.0046 | 61000 | 59.2 |
| B1 | 170 | 0.015 | 92000 | 44.6 |
| B2 | 27 | 0.0022 | 82000 | 83.6 |
| B5 | 19 | 0.0024 | 120000 | 60.8 |
| B6 | 29 | 0.0042 | 140000 | 119 |
| B7 | 25 | 0.0023 | 93000 | 83.5 |
| B8 | 31 | 0.0061 | 200000 | 69.8 |
| B9 | 130 | 0.0069 | 56000 | 284 |
| B10 | 80 | 0.0085 | 110000 | 101 |
| B3 | 11 | 0.0011 | 98000 | 37.7 |
| B11 | 30 | 0.01 | 340000 | 106 |
| B12 | 3 | 0.00021 | 69000 | 569 |

The binders below were run against T1, human CD30 CRD1 (F19-Q68) Fc fusion … (assay: ELISA on the CD30 fragment CRD1, absorbance OD 450 nm; sdAb concentration not given).

| Binder | binding result |
| --- | --- |
| B10 | binds |
| B12 | binds |

What follows are binders tested against T6, human CD30 CRD6 (E282-K379) Fc fusion … (assay: ELISA on the CD30 fragment CRD6, absorbance OD 450 nm; sdAb concentration not given).

| Binder | binding result |
| --- | --- |
| B4 | binds |
| B5 | binds |
| B6 | binds |
| B7 | binds |
| B8 | binds |
| B9 | binds |
| B11 | binds |
